Measured values taken from article PMC3991615, “The N-Terminal Domain of the Repressor of Staphylococcus aureus Phage Φ11 Possesses an Unusual Dimerization Ability and DNA Binding Affinity”.
Each block holds one molecule with its values, some of them ahead of it.

Columns and labels:
[1] = target: T1, rCI (phage phi11 CI lysogenic repressor) (Staphylococcus aureus phage phi11) (UniProt Q8SDX2); experiment: EMSA; conditions: EMSA with ~0.1 nM 32P-DNA, 20 min on ice (0°C) unless 42°C; RNAP assay and protein storage in buffer C (10 mM Tris-HCl pH 8.0, 200 mM NaCl, 1 mM EDTA, 5% …)
T1 sequence: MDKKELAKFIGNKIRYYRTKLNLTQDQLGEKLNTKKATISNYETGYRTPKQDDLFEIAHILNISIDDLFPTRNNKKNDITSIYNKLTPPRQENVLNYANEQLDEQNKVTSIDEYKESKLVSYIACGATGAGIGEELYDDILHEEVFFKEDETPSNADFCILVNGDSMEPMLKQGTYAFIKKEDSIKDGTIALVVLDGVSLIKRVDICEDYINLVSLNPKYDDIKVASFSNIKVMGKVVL

[2] = target: T2, rNTD (N-terminal domain of phage phi11 CI repressor) (Staphylococcus aureus phage phi11) (UniProt Q8SDX2); experiment: EMSA; conditions: EMSA with ~0.1 nM 32P-DNA, 20 min on ice (0°C) unless 42°C; RNAP assay and protein storage in buffer C (10 mM Tris-HCl pH 8.0, 200 mM NaCl, 1 mM EDTA, 5% …)
T2 sequence: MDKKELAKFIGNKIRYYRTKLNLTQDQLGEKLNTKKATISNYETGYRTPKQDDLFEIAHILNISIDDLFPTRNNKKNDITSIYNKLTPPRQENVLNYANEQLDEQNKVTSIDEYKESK

[3] = target: T2, rNTD (N-terminal domain of phage phi11 CI repressor) (Staphylococcus aureus phage phi11); experiment: DMS footprinting; conditions: EMSA with ~0.1 nM 32P-DNA, 20 min on ice (0°C) unless 42°C; RNAP assay and protein storage in buffer C (10 mM Tris-HCl pH 8.0, 200 mM NaCl, 1 mM EDTA, 5% …)
[4] = target: recombinant N-terminal domain (NTD) of the Φ11 lysogenic repressor CI (Staphylococcus aureus phage Φ11); experiment: SEC; analytical gel filtration, 10 µM protein in buffer C (10 mM Tris-HCl pH 8.0, 200 mM NaCl, 1 mM EDTA, 5% glycerol) with 10 mM β-mercaptoethanol; calibrated with conalbumin, ovalbumin, carbonic anhydrase, cytochrome C
[5] = target: recombinant N-terminal domain (NTD) of the Φ11 lysogenic repressor CI (Staphylococcus aureus phage Φ11); experiment: cross-linking; glutaraldehyde (0.1%), 1-5 µM protein, products analysed by 13.5% SDS-PAGE
[6] = target: Φ11 CI with a C-terminal histidine tag (Staphylococcus aureus phage Φ11); experiment: SEC; analytical gel filtration, 10 µM protein in buffer C (10 mM Tris-HCl pH 8.0, 200 mM NaCl, 1 mM EDTA, 5% glycerol) with 10 mM β-mercaptoethanol; calibrated with conalbumin, ovalbumin, carbonic anhydrase, cytochrome C
[7] = target: Φ11 CI with a C-terminal histidine tag (Staphylococcus aureus phage Φ11); experiment: cross-linking; glutaraldehyde (0.1%), 1-5 µM protein, products analysed by 13.5% SDS-PAGE
[8] = target: T3, rNTD (N-terminal domain of phage phi11 CI repressor) (Staphylococcus aureus phage phi11, UniProt Q8SDX2 1-118); experiment: EMSA; 0°C (on ice); EMSA with ~0.1 nM 32P-DNA, 20 min on ice (0°C) unless 42°C; RNAP assay and protein storage in buffer C (10 mM Tris-HCl pH 8.0, 200 mM NaCl, 1 mM EDTA, 5% glycerol); standard EMSA buffer not printed (per refs 7, 8); native PAGE 6% or 10%; conditions: protein: recombinant, tags: C-terminal His6 (8 additional residues), chain copies: 2, label: 32P
T3 sequence: T2 sequence

[9] = target: T4, rCI (phage phi11 CI lysogenic repressor) (Staphylococcus aureus phage phi11, UniProt Q8SDX2 1-239); experiment: as above; conditions: protein: recombinant; tags: C-terminal His tag; chain copies: 2; label: 32P; 3' overhang 1 nt (both ends)
T4 sequence: T1 sequence

Molecule: ATTCAACAAAAAAATACACGAAAAGCAAACTTTTATGTTGACTCAAGTACACGTATCGTGTATAGTAGGTTTTGTAAGCGGGAGGTGACAACATGCAATGGAATTTAATAAAGTTGAGAAAAGAAAGAAAGTGTACTCAAGAAGATTTAGGATCC (double strand) [O1O2]
binding [1]: binds | binding [2]: binds

Molecule: CTCGAGCATTTTAACTACGTTTGCAGCTTGCTCGCCACGGTCGCCTTCAACGATGTCGAATTCAACTTTTTGGCCTTCTTCTAATGATTTGTATCCATCTTCAGCGATTGCTGAGAAGTGTACGAATACGTCGCTACCATCTTCTCTTTCGATGAAACCAAAACCTTTTTCTGCATTAAACCATTTAACTGTACCGTTATTCATCCATGGCATG (double strand) [cspC]
binding [2]: no binding

Molecule: GGATCCTAAATCTTCTTGAGTACACTTTCTTTCTTTTCTCAACTTTATTAAATTCCATTGCATGTTGTCACCTCCCGCTTACAAAACCTACTATACACGATACGTGTACTTGAGTCAACATAAAAGTTTGCTTTTCGTGTATTTTTTTGTTGAATACCAAAAATAATTGGGTTATACTATAGGTAAATTTAAGGAGGTAAGAAAATGGATAAAAAAGAATTAGCGAAATTTATAGGCAATAAAATCAGATACTATAGAACCAAGAATTC (double strand) [O]
binding [2]: binds | binding [3]: binds

stoichiometry N [4]: 2 | stoichiometry N [5]: 2
Molecule: recombinant N-terminal domain (NTD) of the Φ11 lysogenic repressor CI (domain or fragment)

stoichiometry N [6]: 2 | stoichiometry N [7]: 2
Molecule: Φ11 CI with a C-terminal histidine tag (natural protein)

B1: O2 (dsDNA)
DNA 1: ATTCAACAAAAAAATACACGAAAAGCAAACTTTTATGTTGACTCAAGTA
DNA 2: TACTTGAGTCAACATAAAAGTTTGCTTTTCGTGTATTTTTTTGTTGAAT
Kd ([8]; blunt): 7.83 ± 0.44 nM

B2: O1 (dsDNA)
DNA 1: GACTCAAGTACACGTATCGTGTATAGTAGGTTTA
DNA 2: AAACCTACTATACACGATACGTGTACTTGAGTCA
Kd [9]: 3.17 ± 0.75 nM | Kd ([8]; 3' overhang 1 nt (both ends)): 3.13 ± 0.51 nM
